Results published in PMC1885664 (Nucleic Acids Research, 2007).
Substitutions are numbered along the chain they refer to. Numbers in names are those of the source.

B1: P. aeruginosa RdgC K146A mutant (natural protein, Pseudomonas aeruginosa PAO1, UniProt Q9HYX7 1-306, looked up)
chain: MWFRNLLVYRLTQDLQLDADSLEKALGEKSARPCASQELTTYGFTAPFGKGPDAPLVHVSQDFFLISARKEERILPGSVVRDALKEKVDEIEAQQMRKVYKKERDQLKDEIVQTLLPRAFIRRSSTFAAIAPSLGLILVDSASAKAAEDLLSTLREALGSLPVRPLSVKVAPTATLTDWVKTQEAAGDFHVLDECELRDTHEDGGVVRCKRQDLTSEEIQLHLTAGKLVTQLSLAWSDKLSFVLDDKLAVKRLRFEDLLQEQAEKDGGEDALGQLDASFTLMMLTFAEFLPALFEALGGEEIPQGV
B2: P. aeruginosa RdgC R198A mutant (natural protein, Pseudomonas aeruginosa PAO1, UniProt Q9HYX7 1-306, looked up)
chain: B1 chain with A146K, R198A
B3: P. aeruginosa RdgC R208A mutant (natural protein, Pseudomonas aeruginosa PAO1, UniProt Q9HYX7 1-306, looked up)
chain: B1 chain with A146K, R208A
B4: P. aeruginosa RdgC R211D mutant (natural protein, Pseudomonas aeruginosa PAO1, UniProt Q9HYX7 1-306, looked up)
chain: B1 chain with A146K, R211D
B5: P. aeruginosa RdgC Q212A mutant (natural protein, Pseudomonas aeruginosa PAO1, UniProt Q9HYX7 1-306, looked up)
chain: B1 chain with A146K, Q212A
B6: P. aeruginosa RdgC R252A mutant (natural protein, Pseudomonas aeruginosa PAO1, UniProt Q9HYX7 1-306, looked up)
chain: B1 chain with A146K, R252A
B7: P. aeruginosa RdgC R4A mutant (natural protein, Pseudomonas aeruginosa PAO1, UniProt Q9HYX7 1-306, looked up)
chain: B1 chain with R4A, A146K
B8: P. aeruginosa RdgC K70D mutant (natural protein, Pseudomonas aeruginosa PAO1, UniProt Q9HYX7 1-306, looked up)
chain: B1 chain with K70D, A146K
B9: P. aeruginosa RdgC R81D mutant (natural protein, Pseudomonas aeruginosa PAO1, UniProt Q9HYX7 1-306, looked up)
chain: B1 chain with R81D, A146K
B10: P. aeruginosa RdgC F120A mutant (natural protein, Pseudomonas aeruginosa PAO1, UniProt Q9HYX7 1-306, looked up)
chain: B1 chain with F120A, A146K
B11: P. aeruginosa RdgC R122D mutant (natural protein, Pseudomonas aeruginosa PAO1, UniProt Q9HYX7 1-306, looked up)
chain: B1 chain with R122D, A146K
B12: Pseudomonas aeruginosa RdgC (recombination-associated DNA-binding protein), wild type (natural protein, Pseudomonas aeruginosa PAO1, UniProt Q9HYX7 1-306, looked up)
chain: B1 chain with A146K

Target: the molecule itself
Assay: SEC

| Protein | binding result |
| --- | --- |
| B1 | binds |
| B2 | binds |
| B3 | binds |
| B4 | binds |
| B5 | binds |
| B6 | binds |
| B7 | binds |
| B8 | binds |
| B9 | binds |
| B10 | binds |
| B11 | binds |

Target: the molecule itself
Assay: crystal structure

| Protein | stoichiometry N |
| --- | --- |
| B12 | 2 |
